System: MS2 coat protein
Assay: apparent KD of MS2 coat protein; designed switch direction (-1 OFF switch, 1 ON switch): -1; higher = weaker reporter binding
In short: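 The apparent KD reported per design is the median over clusters of curve fits to normalised cluster fluorescence. The RNA switches were transcribed on Illumina chips by stalled E. coli RNA polymerase. SNAP-549-labelled MS2 coat protein was titrated from 0.7 or 1.5 nM, doubling up to 3 µM, in Tris-HCl pH 7.5 buffer containing KCl, MgCl2, BSA, DTT, tRNA and Tween-20, with no input, 200 uM small-molecule ligand, or an oligonucleotide input.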

[1] = Eterna round: R95, input ligand: FMN 200 uM
[2] = Eterna round: R95, input ligand: microRNA oligo, concentration not stated
[3] = Eterna round: R95, input ligand: none
[4] = input ligand: microRNA oligo, concentration not stated

GCAGGAUAAGUCAGGAUAUACCUAUGGAUACAUAGGUAGAAGGGACAUGAGGAUCACCCAUGUGCCUCACCUGC [Fiskers BMX 4 - 57] (puzzle: Brourd's mod of Exclusion 4)
apparent KD of MS2 coat protein [1]: 48.7 nM
apparent KD of MS2 coat protein [2]: 16.6 nM
apparent KD of MS2 coat protein [3]: 16.1 nM

GCAGGUUAAGUAAGGAUAUACCUCUGGAAACAGAGGUAGAAGGUACAUGAGGAUCACCCAUGUUUCUCUUUUGC [Mod of Eli 5 - Jieux - Brourd's mod of Exclusion 4] (Eterna round: R97, puzzle: Brourd's mod of Exclusion 4)
apparent KD of MS2 coat protein (input ligand: FMN 200 uM): 24.8 nM
apparent KD of MS2 coat protein (input ligand: none): 16 nM

GCAGGUUAAGUCAGGAUAUACCUAUGGAUACAUAGGUAGAAGGGACAUGAGGAUCACCCAUGUGACUCGCCUGC [Fiskers BMX 4 - 61] (puzzle: Brourd's mod of Exclusion 4)
apparent KD of MS2 coat protein [2]: 25.6 nM

GCAUCCAAUGUGAGGAUAUACCUCUGGAUACAUAGGUAGAAGGCACAUGAGGAUCACCCAUGUCCUAAGGAUGC [Fiskers BMX 4 - 28] (puzzle: Brourd's mod of Exclusion 4)
apparent KD of MS2 coat protein [2]: 75 nM

GCAUCCAAUGUGAGGAUAUACCUCUGGAUACAUAGGUAGAAGGCACAUGAGGAUCACCCAUGUUCCUAGGAUGC [Fiskers BMX 4 - 31] (puzzle: Brourd's mod of Exclusion 4)
apparent KD of MS2 coat protein [2]: 32.9 nM

GCAUCGUGAGGAUAUACAUGAGGAUCACCCAUGUGGCGGAUCUACCAGCCAGCAAAAUGUAGAAGGCAUUGCUU [Eternabot (L2) Solution 19] (Eterna round: R97, puzzle: Exclusion 3)
apparent KD of MS2 coat protein (input ligand: FMN 200 uM): 123 nM
apparent KD of MS2 coat protein (input ligand: none): 142 nM

GCAUCUCAUGUCAGGAUAUGCUGUACCUUGGUACAGCAGAAGGGACAUGAGGAUCACCCAUGUGCCUAAGAUGC [JL-BMX4-4.12] (Eterna round: R97, puzzle: Brourd's mod of Exclusion 4)
apparent KD of MS2 coat protein (input ligand: FMN 200 uM): 1270 nM
apparent KD of MS2 coat protein (input ligand: none): 254 nM

GCAUCUCGCAAGGGUACCCACAUGAGGAUCACCCAUGUGAUGAUAAACAGGUUUCGUGCGUCCGUUUUAUCCACUUU [Eternabot (L2) Solution 18] (Eterna round: R97, puzzle: Sensor, turn-off variant 1)
apparent KD of MS2 coat protein (input ligand: FMN 200 uM): 737 nM
apparent KD of MS2 coat protein (input ligand: none): 865 nM

GCAUGCUAUGUCAGGAUAUACCUCUGGAUACAUAGGUAGAAGGGACAUGAGGAUCACCCAUGUCCUAAACAUGC [Fiskers BMX 4 - 26] (puzzle: Brourd's mod of Exclusion 4)
apparent KD of MS2 coat protein [2]: 11.4 nM

GCAUGGAAAGUGAGGAUAUACCACUGGAUACAGUGGUAGAAGGCACAUGAGGAUCACCCAUGUUUCUACCAUGC [Fiskers BMX 4 - 40] (puzzle: Brourd's mod of Exclusion 4)
apparent KD of MS2 coat protein [2]: 12.7 nM

GCAUGGCGAGGAUAUACAUGAGGAUCACCCAUGUGAGAAGAAUAAGUGAGGAAGAAAAGUAGAAGGCGCUGUGG [Mat - Exclusion 3 - Mod of Salish D63] (puzzle: Exclusion 3)
apparent KD of MS2 coat protein [1]: 128 nM
apparent KD of MS2 coat protein [2]: 51.5 nM
apparent KD of MS2 coat protein [3]: 85 nM

GCAUGGCGAGGAUAUACAUGAGGAUCACCCAUGUGAGAAUAAGAAGUGAGGAAGAAAAGUAGAAGGCGCUGUGG [Mat - Exclusion 3 - Mod of Salish D65] (puzzle: Exclusion 3)
apparent KD of MS2 coat protein [1]: 173 nM
apparent KD of MS2 coat protein [2]: 73.8 nM
apparent KD of MS2 coat protein [3]: 84.5 nM

GCAUGUCUUAAGGAUAUGCUUAGGCGUGAGCCGGCAGAAGGUAAGACAUGAGGAUCACCCAUGUUUUCCUAAAA [jl-ex6-4.31 ViennaUCT mod] (Eterna round: R97, puzzle: Exclusion 6)
apparent KD of MS2 coat protein (input ligand: FMN 200 uM): 171 nM
apparent KD of MS2 coat protein (input ligand: none): 24.4 nM

GCCAACGACUGAGGAUAUGCUUAUAGACAUGAGGAUCACCCAUGUAAAUGGGACAUGUCAAACCAGCAGAAGGCAGGACCUGGC [Inteinrais] (Eterna round: R96, puzzle: Exclusion NG 2)
apparent KD of MS2 coat protein (input ligand: FMN 200 uM): 100 nM
apparent KD of MS2 coat protein [4]: 57.5 nM
apparent KD of MS2 coat protein (input ligand: none): 70.3 nM

GCCACAGCAGGAUAUUCAAUAAUUCACAUGAGGAUCACCCAUGUCGAGCGAAAGCUCGAGGGAGAAGGGCUGUGGC [Mat - Exclusion 5 - Eli mod - D88] (puzzle: Exclusion 5)
apparent KD of MS2 coat protein [2]: 34.4 nM

GCCACGGGAGGAUAUACAUAGGAGUUCUCUUCCUGCUCGAGACAUGAGGAUCACCCAUGUAGAAGGCCCGCUGC [Eternabot (L2) Solution 17] (Eterna round: R97, puzzle: Exclusion 2)
apparent KD of MS2 coat protein (input ligand: FMN 200 uM): 62.2 nM
apparent KD of MS2 coat protein (input ligand: none): 385 nM

GCCACGGGAGGAUAUCGCGGAGGCUACAUGAGGAUCACCCAUGUCUGGUCUUCGUGCUCCCGAGAAGGCCCGUCAG [Bivemaus] (puzzle: Exclusion 5)
apparent KD of MS2 coat protein [2]: 13.2 nM

GCCAGAGCAGGAUAUCUAAUAUAUCACAUGAGGAUCACCCAUGUCCAGCGAAAGCUGGAGGGAGAAGGGCUCUGGC [Fiskers Ex 5 - 19] (puzzle: Exclusion 5)
apparent KD of MS2 coat protein [1]: 53.6 nM
apparent KD of MS2 coat protein [2]: 98.4 nM
apparent KD of MS2 coat protein [3]: 106 nM

GCCAGAGCAGGAUAUCUAAUGUAUCACAUGAGGAUCACCCAUGUCCAGCGAAAGCUGGAGGGAGAAGGGCUCUGGC [Fiskers Ex 5 - 20] (puzzle: Exclusion 5)
apparent KD of MS2 coat protein [1]: 49.9 nM
apparent KD of MS2 coat protein [2]: 105 nM
apparent KD of MS2 coat protein [3]: 106 nM

GCCAGAGCAGGAUAUUCAAUAAUCCACAUGAGGAUCACCCAUGUCUAGCGAAAGCUAGAGGGAGAAGGGCUCUGGC [Mat - Exclusion 5 - Eli mod - D90] (puzzle: Exclusion 5)
apparent KD of MS2 coat protein [2]: 57.2 nM

GCCAGAGCAGGAUAUUCAAUAAUUCACAUGAGGAUCACCCAUGUCCAGCGAAAGCUAGGAGGAGAAGGGCUCUGGC [Fiskers Ex 5 - 4] (puzzle: Exclusion 5)
apparent KD of MS2 coat protein [1]: 15.2 nM
apparent KD of MS2 coat protein [2]: 17.2 nM
apparent KD of MS2 coat protein [3]: 17.8 nM

GCCAGAGCAGGAUAUUCAAUAUAUCACAUGAGGAUCACCCAUGUCCAGCGAAAGCUGGAGGGAGAAGGGCUCUGGC [Fiskers Ex 5 - 16] (puzzle: Exclusion 5)
apparent KD of MS2 coat protein [1]: 99.5 nM
apparent KD of MS2 coat protein [2]: 416 nM
apparent KD of MS2 coat protein [3]: 390 nM

GCCAGUGCAGGAUAUUCAAUAAUUCACAUGAGGAUCACCCAUGUCCAGCGAAAGCUGGAAGGAGAAGGGCACUGGC [Mat - Exclusion 5 - Eli mod - D85] (puzzle: Exclusion 5)
apparent KD of MS2 coat protein [1]: 10.2 nM
apparent KD of MS2 coat protein [2]: 12.8 nM
apparent KD of MS2 coat protein [3]: 14.6 nM

GCCCGUGCGGAGGAUAUUGAUAUCCCAGUCUAUCAAGAAGGCUGCACAUGAGGAUCACCCAUGUGACCUGUGCU [Retiqule] (puzzle: Exclusion 6)
apparent KD of MS2 coat protein [2]: 15.8 nM

GCCCGUGGGCAAGGAUAUCCUACGCUGUUCUGGUUCGUGUCUGUCACAUGAGGAUCACCCAUGUGGGAGAAGGUGCACCAGGGU [Design 52] (Eterna round: R96, puzzle: Exclusion NG 2)
apparent KD of MS2 coat protein (input ligand: FMN 200 uM): 13.5 nM
apparent KD of MS2 coat protein [4]: 10.7 nM
apparent KD of MS2 coat protein (input ligand: none): 14.4 nM

GCCCGUGGGCAAGGAUAUCCUACGCUGUUCUGGUUCGUGUCUGUCACAUGAGGAUCACCCAUGUGGGAGAAGGUGCACUAGGGU [Design 53] (Eterna round: R96, puzzle: Exclusion NG 2)
apparent KD of MS2 coat protein (input ligand: FMN 200 uM): 19.7 nM
apparent KD of MS2 coat protein [4]: 11.1 nM
apparent KD of MS2 coat protein (input ligand: none): 16.9 nM

GCCCGUGGGCAAGGAUAUCCUACGCUGUUCUGGUUCGUGUCUGUCACAUGAGGAUCACCCAUGUGGGAGAAGGUGCAUUUGGGU [Design 55] (Eterna round: R96, puzzle: Exclusion NG 2)
apparent KD of MS2 coat protein (input ligand: FMN 200 uM): 14.1 nM
apparent KD of MS2 coat protein [4]: 11.1 nM
apparent KD of MS2 coat protein (input ligand: none): 17.3 nM

GCCGAAAAUGUGAGGAUAUACCUAUGGAUACAUAGGUAGAAGGCACAUGAGGAUCACCCAUGUGUCCAAACGGC [Eli bmx4 4.22] (Eterna round: R97, puzzle: Brourd's mod of Exclusion 4)
apparent KD of MS2 coat protein (input ligand: FMN 200 uM): 58.2 nM
apparent KD of MS2 coat protein (input ligand: none): 14.5 nM

GCCGAAAGCGUAGGAUAUCGAAUAAAGCGGAAACGCAAGACAUGAGGAUCACCCAUGUGUCCGGACGAGAAGGGCGAAAGCGGC [EXNG2 V2 a] (Eterna round: R96, puzzle: Exclusion NG 2)
apparent KD of MS2 coat protein (input ligand: FMN 200 uM): 33.4 nM
apparent KD of MS2 coat protein [4]: 27.1 nM
apparent KD of MS2 coat protein (input ligand: none): 34.3 nM

GCCGAUUAAGUCAGGAUAUACCUAUGGAUACAUAGGUAGAAGGGACAUGAGGAUCACCCAUGUUCCUCAUCGGC [Fiskers BMX 4 - 12] (puzzle: Brourd's mod of Exclusion 4)
apparent KD of MS2 coat protein [1]: 41.6 nM
apparent KD of MS2 coat protein [2]: 13.5 nM
apparent KD of MS2 coat protein [3]: 16.9 nM

GCCGCGCGAGGAUAUACAUGAGGAUCACCCAUGUGAAAUUAUAGUGAGGAAAUGAAAAGUAGAAGGCGCGCGGA [Mod of Mat 19 - Jieux - Exclusion 3] (Eterna round: R97, puzzle: Exclusion 3)
apparent KD of MS2 coat protein (input ligand: FMN 200 uM): 258 nM
apparent KD of MS2 coat protein (input ligand: none): 37 nM

GCCGUCGUUGUGAGGAUAUGCCUAUGGAUACGUAGGCAGAAGGCACAUGAGGAUCACCCAUGUCCAAAGACGGC [JL-BMX4-4.28 Eli mod] (Eterna round: R97, puzzle: Brourd's mod of Exclusion 4)
apparent KD of MS2 coat protein (input ligand: FMN 200 uM): 1000 nM
apparent KD of MS2 coat protein (input ligand: none): 101 nM

GCCGUUGAAGGAUAUGCUGAACUUGAGGUGCGUCCAUCCACACAUGAGGAUCACCCAUGUAGAAGGUCAACGGA [Eternabot (L2) Solution 67] (Eterna round: R97, puzzle: Exclusion 2)
apparent KD of MS2 coat protein (input ligand: FMN 200 uM): 456 nM
apparent KD of MS2 coat protein (input ligand: none): 287 nM

GCCUAACAUGAGGAUCACCCAUGUAAGGAUAUGAUUAGUCGUUUGUAAGCAGCGCGACUCAGAAGGUACUUGGG [Eternabot (L1) Solution 34] (Eterna round: R97, puzzle: Exclusion 1)
apparent KD of MS2 coat protein (input ligand: FMN 200 uM): 72 nM
apparent KD of MS2 coat protein (input ligand: none): 25.4 nM

From the supplement of paper PMC9170038
